Data set [1] concerns CC(C)(O/N=C(\C(=O)N[C@@H]1C(=O)N2C(C(=O)[O-])=C(C[n+]3ccccc3)CS[C@H]12)c1csc(N)n1)C(=O)O. Nature of the data set: (§1) Activity of Pseudomonas aeruginosa VIM2 assessed as drug hydrolysis by spectrophotometry.
In data set [2] the test system is Nc1nc(/C(=N/O)C(=O)N[C@@H]2C(=O)N3C(C(=O)O)=C(/C=C4\CCN([C@@H]5CCNC5)C4=O)CS[C@H]23)ns1. The description is as §1.
Data set [3] concerns O=C(Cc1cccs1)N[C@@H]1C(=O)N2C(C(=O)[O-])=C(C[n+]3ccccc3)CS[C@H]12. Described as §1.
Data set [4] relates to CC(C)(O/N=C(\C(=O)N[C@@H]1C(=O)N2C(C(=O)[O-])=C(C[n+]3ccccc3)CS[C@H]12)c1csc(N)n1)C(=O)O. Put plainly: (§2) Ratio of Kcat to Km of Pseudomonas aeruginosa VIM2 assessed as drug hydrolysis by spectrophotometry.
For data set [5], the system named is O=C(Cc1cccs1)N[C@@H]1C(=O)N2C(C(=O)[O-])=C(C[n+]3ccccc3)CS[C@H]12. The data set is described as §2.

The record followed here is ChEMBL document CHEMBL1143427, “Interactions of ceftobiprole with beta-lactamases from molecular classes A to D” (Antimicrob Agents Chemother, 2007).

The Km is the substrate concentration at which the rate is half of its maximum. For orientation: kcat means the maximal rate divided by the concentration of active sites. As usually defined, the kcat/Km is the turnover number divided by the Michaelis constant. On to “Beta-lactamase VIM-2 (Pseudomonas aeruginosa) (from UniProt Q9K2N0)”, for which the Michaelis constant (Km) in data set [1] came to 150 µM; in data set [2], 46 µM; in data set [3] it was 1400 µM. For the same substance, the results for the catalytic constant (kcat) in data set [1], in data set [2] and in data set [3] were 0.23 s⁻¹, 15 s⁻¹ and 120 s⁻¹, respectively. The kcat/Km in data set [4] is 0.0015 s⁻¹ µM⁻¹; in data set [5] it was 0.086 s⁻¹ µM⁻¹.
